Experimental data taken from patent EP4628104A1 (Shanghai Chia Tai Tianqing Pharmaceutical Technology …, dated 2024).

Legend:
human CLDN18.2 [1] = target: T1, human CLDN18.2 (human); test: flow cytometry, CLDN18.2-overexpressing BxPC-3 cells
T1 construct: The construct in the CLDN18.2-overexpressing BxPC-3 and NCI-N87 lines is not described; KATOIII and NUGC-4 express CLDN18.2 naturally; All are written here as this one molecule; also called Claudin 18.2; tight junction protein 18.2

human CLDN18.2 [2] = target: T1, human CLDN18.2; test: cell-based or functional assay
human CLDN18.2 [3] = target: T1, human CLDN18.2; test: cell-based or functional assay; remark: listed apart in the source
human CLDN18.2 [4] = target: T1, human CLDN18.2; test: flow cytometry, CLDN18.2-overexpressing NCI-N87 cells
human CLDN18.2 [5] = target: T1, human CLDN18.2; test: flow cytometry, CLDN18.2-overexpressing NIH-3T3 cells
human CLDN18.2 [6] = target: T1, human CLDN18.2; test: cell-based or functional assay; remark: listed apart in the source

T1 sequence (chain, as listed by the source limits assumed): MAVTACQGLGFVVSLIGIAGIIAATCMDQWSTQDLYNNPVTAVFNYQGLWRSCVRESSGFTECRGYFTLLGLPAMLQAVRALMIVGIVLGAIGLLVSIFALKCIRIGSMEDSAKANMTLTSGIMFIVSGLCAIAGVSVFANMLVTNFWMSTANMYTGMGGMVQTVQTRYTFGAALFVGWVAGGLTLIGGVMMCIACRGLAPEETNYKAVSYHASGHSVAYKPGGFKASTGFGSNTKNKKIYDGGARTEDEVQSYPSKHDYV

| Binder | EC50 (human CLDN18.2 [1]) | Killing activity IC50 (CellTiter-Glo), CLDN18.2-overexpressing BxPC-3 cells (human CLDN18.2 [2]) | Killing activity IC50 (CellTiter-Glo), CLDN18.2-overexpressing NCI-N87 cells (human CLDN18.2 [2]) | Killing activity IC50 (CellTiter-Glo), CLDN18.2-overexpressing NIH-3T3 cells (human CLDN18.2 [2]) | Endocytosis EC50, CLDN18.2-overexpressing NCI-N87 cells (human CLDN18.2 [3]) | Endocytosis EC50, CLDN18.2-overexpressing NIH-3T3 cells (human CLDN18.2 [3]) | EC50 (human CLDN18.2 [4]) | EC50 (human CLDN18.2 [5]) | CDC activity IC50, CLDN18.2-overexpressing NIH-3T3 cells with human complement (human CLDN18.2 [6]) |
| --- | --- | --- | --- | --- | --- | --- | --- | --- | --- |
| hz28G3-1.1-DDDXd (with DAR of 7.4) (antibody, human IgG1, kappa, DAR 7.4, V domains shown, linker-payload MC-GGFG-DDDXd (compound H) conjugated to cysteines of the reduced inter-chain disulfide bonds; positions not given; linker-payload MC-GGFG-DDDXd (compound H) conjugated to cysteines of the reduced inter-chain disulfide bonds; positions not given; DAR 7.4 for the whole molecule, also called anti-CLDN18.2 antibody-drug conjugate) VH: QVQLVQSGAEVKKPGASVKVSCKTSGYSFTDYLMLWVRQAPGQGLEWMGNINPYYGRTTYALKFKGRVTMTVDRSTSTVYMELSSLRSEDTAVYYCARDGYSLRNAMDYWGQGTLVTVSS VL: DIVMTQSPDSLAVSLGERATINCKSSQSLFNSGNQKNYLAWYQQKPGQPPKLLIYGASTRESGVPDRFSGSGSGTDFTLTISSLQAEDVAVYYCQNAHSYPYTFGQGTKVEIKR | 1.13 nM | 0.125 nM | 0.0381 nM | 0.44 nM | 4.41 nM | 3.69 nM | 1.17 nM | 0.896 nM | ~0.352 nM |
| humanized antibody hz28G3-1.1 (antibody, human IgG1, kappa, V domains shown, Naked humanized anti-CLDN18.2 antibody, human IgG1 / kappa, expressed in CHO cells) VH: QVQLVQSGAEVKKPGASVKVSCKTSGYSFTDYLMLWVRQAPGQGLEWMGNINPYYGRTTYALKFKGRVTMTVDRSTSTVYMELSSLRSEDTAVYYCARDGYSLRNAMDYWGQGTLVTVSS VL: DIVMTQSPDSLAVSLGERATINCKSSQSLFNSGNQKNYLAWYQQKPGQPPKLLIYGASTRESGVPDRFSGSGSGTDFTLTISSLQAEDVAVYYCQNAHSYPYTFGQGTKVEIKR | 2.63 nM | – | – | – | 7.84 nM | 2.57 nM | 2.61 nM | 2.27 nM | – |
| hz28G3-1.3-DDDXd (with DAR of 7.6) (antibody, human IgG1, kappa, DAR 7.6, V domains shown, linker-payload MC-GGFG-DDDXd (compound H) conjugated to cysteines of the reduced inter-chain disulfide bonds; positions not given; linker-payload MC-GGFG-DDDXd (compound H) conjugated to cysteines of the reduced inter-chain disulfide bonds; positions not given; DAR 7.6 for the whole molecule, also called anti-CLDN18.2 antibody-drug conjugate) VH: QVQLVQSGAEVKKPGASVKVSCKTSGYSFTDYLMLWVRQAHGQSLEWMGNINPYYGRTTYALKFKGRVTMTVDRSTSTVYMELSSLRSEDTAVYYCARDGYSLRNAMDYWGQGTLVTVSS VL: DIVMTQSPDSLAVSLGERATINCKSSQSLFNSGNQKNYLAWYQQKPGQPPKLLIYGASTRESGVPDRFSGSGSGTDFTLTISSLQAEDVAVYYCQNAHSYPYTFGQGTKVEIKR | 0.946 nM | 0.0886 nM | 0.0337 nM | 0.281 nM | 3.24 nM | 1.85 nM | 1.02 nM | 0.593 nM | ~0.352 nM |
| humanized antibody hz28G3-1.3 (antibody, human IgG1, kappa, V domains shown, Naked humanized anti-CLDN18.2 antibody, human IgG1 / kappa, expressed in CHO cells) VH: QVQLVQSGAEVKKPGASVKVSCKTSGYSFTDYLMLWVRQAHGQSLEWMGNINPYYGRTTYALKFKGRVTMTVDRSTSTVYMELSSLRSEDTAVYYCARDGYSLRNAMDYWGQGTLVTVSS VL: DIVMTQSPDSLAVSLGERATINCKSSQSLFNSGNQKNYLAWYQQKPGQPPKLLIYGASTRESGVPDRFSGSGSGTDFTLTISSLQAEDVAVYYCQNAHSYPYTFGQGTKVEIKR | 3.42 nM | – | – | – | 6.68 nM | 4.26 nM | 2.73 nM | 1.76 nM | – |
